In patent US20210196823A1, “Methods of Treating Metabolic Disease” (Pfizer Inc., priority 2018, published 2021):

Key:
Huh7 cells = experiment: HAMP and ID1 qRT-PCR in Huh7 cells treated with BMPs with or without mouse ERFE; format: cell-based; conditions: a variety of different cell types
Method: (b) Gene expression microarray: Microarray analysis of Huh7 cells treated with mouse or human erythroferrone was carried out to test the activity of erythroferrone on the BMP/SMAD signalling pathway. Generally cell treatments were carried out according to the following protocol: Huh7 and HepG2 were cultured in Dulbecco's Modified Eagle's Medium—High Glucose (Sigma), supplemented with 10% Fetal Bovine Serum (Sigma), 1% Penicillin-Streptomycin (Sigma) and 1% L-Glutamine (Sigma), unless otherwise indicated. Cells were plated 24 h before treatments in 24-well (gene expression analysis) or 12-well (protein analysis) cell culture plates. At the time of treatment, cells were washed with PBS and fresh media was added.
(c) RNA isolation, cDNA synthesis and qRT-PCR: Suppression of several BMP-target genes: HAMP, ID1, ID3, SMAD6 and SMAD7 was further confirmed by qRT-PCR. Cells were lysed and RNA was isolated using the RNeasy Plus kit (Qiagen), followed by RNA quantification and quality assessment using Nanodrop (Thermo Fisher). cDNA was synthesized using the High Capacity RNA-to-cDNA kit (Applied Biosystems). Gene expression was assessed using quantitative real-time PCR with Taqman Gene Expression Master Mix and inventoried Taqman Gene expression assays (Applied Biosystems) specific for the genes of interest according to the manufacturer's instructions. […]

BMP2 = target: T1, BMP2 (Homo sapiens, UniProt P12643); experiment: Biacore SPR, BMP run against ERFE A4-biotin on CM4 chip; format: binding; conditions: BMP 50 nM, MES-Tris buffer pH6.0, 25° C.
T1 sequence (P12643 283-396): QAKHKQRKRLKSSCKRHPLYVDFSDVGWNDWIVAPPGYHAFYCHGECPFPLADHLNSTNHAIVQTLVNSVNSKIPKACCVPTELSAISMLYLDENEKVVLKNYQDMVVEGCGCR
From the text: (§1) Iron absorption is tightly regulated by erythropoietic demand via control of hepcidin expression. Erythropoietin (EPO) causes hepcidin suppression, at least in part by increasing synthesis of the hormone erythroferrone (ERFE). ERFE is produced by erythroblasts after bleeding or EPO treatment, and acts on hepatocytes to suppress hepcidin expression and increase iron availability. ERFE knock out mice fail to suppress hepcidin after phlebotomy and show delayed recovery from blood loss. Furthermore, serum ERFE concentrations are increased in humans after blood loss and EPO administration, and in β-thalassemia patients. Hepcidin expression is modulated via the BMP/SMAD signalling pathway. […] We sought to determine whether the mechanism by which ERFE suppresses hepcidin is through interaction with BMP. Binding constants were measure using Biacore SPR. BMPs 2, 4, 6 at 50 nM was run against ERFE A4-biotin amine coupled to CM4 sensor chip in MES-Tris buffer pH6.0, 25° C.

BMP6 = target: T2, BMP6 (Homo sapiens, UniProt P22004); experiment: as above; format: binding
T2 sequence (P22004 375-513): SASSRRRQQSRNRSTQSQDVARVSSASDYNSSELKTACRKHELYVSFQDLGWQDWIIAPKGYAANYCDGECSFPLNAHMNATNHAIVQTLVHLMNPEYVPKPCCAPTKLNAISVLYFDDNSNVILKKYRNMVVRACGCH
From the text: as §1

BMP4 = target: T3, BMP4 (Homo sapiens, UniProt P12644); experiment: as above; format: binding; conditions: BMP 50 nM, MES-Tris buffer pH6.0, 25° C.
T3 sequence (P12644 293-408): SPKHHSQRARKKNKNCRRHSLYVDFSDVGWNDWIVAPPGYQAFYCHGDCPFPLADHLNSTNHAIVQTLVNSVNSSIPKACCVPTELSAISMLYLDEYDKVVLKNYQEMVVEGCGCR
From the text: as §1

abdominal preadipocytes = experiment: Western blot of phospho- and total SMAD1/5/8 in preadipocytes; format: cell-based, Human; conditions: abdominal cells, 30 minutes
Method: (a) Primary pre-adipocyte isolation. Human primary pre-adipocytes were prepared by isolation from white adipose tissue (WAT) biopsies taken under local anesthetic (1% lignocaine) by needle aspiration at the level of the umbilicus (ASAT) and from the upper-, outer-quadrant of the gluteal region (GSAT). Primary preadipocytes were isolated from ASAT and GSAT biopsies by mechanically mincing using scissors, washed twice with Hanks' buffered salt solution to remove contaminating blood, and then enzymatically digested in 1 mg/ml collagenase (Roche Applied Science) in Hanks' buffered salt solution in a shaking water bath (90 rpm) at 37° C. for 45 min. The digested tissue was centrifuged at 1000 rpm for 5 min at 4° C. The pellet containing stromal-vascular cells was resuspended in Dulbecco's modified Eagle's medium/F12 Ham's nutrient mixture (v/v, 1:1) containing 17.5 mM glucose and supplemented with 10% foetal calf serum, 0.25 ng/ml fibroblast growth factor, 2 mM glutamine, 100 units/ml penicillin and 100 μg/ml streptomycin. Cell stocks of APAD and GPAD cells were prepared and stored in liquid nitrogen for future studies. […]

Kd of ERFE binding to BMP2 (BMP2): nanomolar | Kd of ERFE binding to BMP6 (BMP6; BMP 50 nM, MES-Tris buffer pH6.0, 25° C.): nanomolar | tightness of ERFE binding among BMPs 2, 4 and 6 (BMP6; SPR (Biacore)): most tightly | Kd of ERFE binding to BMP4 (BMP4): nanomolar
B1: ERFE: hormone erythroferrone (FAM132b); recombinant protein, species or construct not stated at the place (SPR used ERFE A4-biotin) (protein)
chain: AAGLGSPEPGAPSRSAAAAEPPPGNELPRGPGESRAGPAARPPEPTAERAHSVDPRDAWMLFVRQSDKGVNGKKRSRGKAKKLKFGLPGPPGPPGPQGPPGPIIPPEALLKEFQLLLKGAVRQRERAEPEPCTCGPAGPVAASLAPVSATAGEDDDDVVGDVLALLAAPLAPGPRAPRVEAAFLCRLRRDALVERRALHELGVYYLPDAEGAFRRGPGLNLTSGQYRAPVAGFYALAATLHVALGEPPRRGPPRPRDHLRLLICIQSRCQRNASLEAIMGLESSSELFTISVNGVLYLQMGQWTSVFLDNASGCSLTVRSGSHFSAVLLGV
inhibitory action on BMP2 and 4 and BMP2/6 heterodimer (Huh7 cells): Inhibitory action is also seen | BMP2-induced SMAD1/5/8 phosphorylation on addition of ERFE (abdominal preadipocytes): diminished
